Assay results as given in US10544159B2, “Artemisinin derivatives, methods for their preparation and their use as antimalarial agents” (priority 2012, dated 2020).
Several values for one entry are separate records, joined by “and”; a condition that tells them apart may be missing. Identical values can stand only once.

Assays:
[1] = assay type: biochemical; conditions: 250 μM artemisinin, rates measured over initial 30 seconds
Description: Measurement of Product Formation Rates and Coupling Efficiency.
Initial product formation rates were measured from 1 mL-scale reactions containing 250 μM artemisinin, 0.1-0.5 μM purified P450, and 200 μM NADPH in potassium phosphate buffer (50 mM, pH 8.0) at room temperature. After 30 seconds, the samples were extracted with dichloromethane and subjected to benzoyl chloride derivatization followed by HPLC analysis as described above. Cofactor oxidation rate in the presence of artemisinin was measured by monitoring NADPH depletion at 340 nm (ε=6.22 mM^−1 cm^−1) using 0.1 μM purified P450, 250 μM artemisinin, and 200 μM NADPH. Coupling efficiency was calculated from the ratio between the initial product formation rate and the initial NADPH oxidation rate. Reported mean and standard deviation values were calculated from experiments performed at least in triplicate.

[2] = KD for artemisinin binding to P450 variants (heme spin-shift titration); conditions: binding of artemisinin to 3 μM purified P450, pH 8.0
Description: Determination of KD Values for Artemisinin Binding.
Binding experiments were performed using 3 μM purified P450 in potassium phosphate buffer (50 mM, pH 8.0) by titrating increasing amounts of artemisinin (5 μM to 1 mM) from an ethanol stock solution (50 mM). At each concentration, a difference spectrum from 350 to 500 nm was recorded and binding curves were generated by plotting the change in absorbance at 390 nm and 420 nm corresponding to the high-spin and low-spin state of the enzyme, respectively, against the artemisinin concentration. KD values were calculated using Sigma Plot via non-linear fitting of the experimental binding curves to an equation describing a standard 1:1 binding interaction. Reported mean and standard deviation values were calculated from experiments performed at least in triplicate.

[3] = Total turnovers and regio-/stereoselectivity of P450 variants in artemisinin hydroxylation (analytical scale); assay type: biochemical; conditions: for regioselectivity toward 6a-hydroxylation: artemisinin as substrate; for Product distribution (%) 4: share of 6a-hydroxy-ART (4); for Product distribution (%) 4 / Product distribution (%) 3 / Product distribution (%) 2: 0.5 mM artemisinin, 0.5-1 μM P450, 12 hours; for Product distribution (%) 3: share of 7(R)-hydroxy-ART (3); for Product distribution (%) 2: share of 7(S)-hydroxy-ART (2)
Description: Determination of Total Turnovers and Regio- and Stereoselectivity of the P450 Variants.
After 12 hours, 9-fluorenone was added to the mixtures as internal standard. The hydroxylation products were functionalized with benzoyl chloride followed by HPLC analysis. TTN values were calculated based on the total amount of hydroxylated products in the reactions as quantified based on the calibration curves generated using purified 2-4. The enzyme regio- and stereoselectivity was determined based on the area under the curve of the chromatographic peaks corresponding to the hydroxylation products 2, 3, and 4. Mean and standard deviation values reported for P450 variants in Table 1 were calculated from experiments performed at least in triplicate.

Row | Molecule | Product formation rate [1] | Kd [2] [µM] | regioselectivity toward 6a-hydroxylation [3] [%] | Product distribution (%) 4 [3] [%] | Product distribution (%) 3 [3] [%] | Product distribution (%) 2 [3] [%] | TTN ([3]; total turnovers on artemisinin, NADPH cofactor regeneration system, analytical scale)
1 | FL#62: CYP102A1-derived engineered P450 variant (SEQ ID NO. 8) (protein) MTIKEMPQPKTFGELKNLPLLNTDKPVQALMKIADELGEIFKFEAPGRVTRYLSSQRLIKEACDESRFDKNLSQALKFARDSVGDGLATSWTHEKNWKKAHNILLPSFSQQAMKGYHAMMVDIAVQLVQKWERLNADEHIEVSEDMTRLTLDTIGLCGFNYRFNSFYRDQPHPFIISMVRTLDEVMNKLQRANPDDPVYDENKRQCQEDIKVMNDLVDKIIADRKARGEQSDDLLTQMLNGKDPETGEPLDDGNISYQIITFLIAGHETTSGLLSFALYFLVKNPHVLQKVAEEAARVLVDPVPSYKQVKQLKYVGMVLNEALRLWPTAPAFSLYAKEDTVLGGEYPLEKGDEVMVLIPQLHRDKTIWGDDVEEFRPERFENPSAIPQHAFKPFGNGQRACIGQQFALHEATLVLGMMLKHFDFEDHTNYELDIKETLTLKPEGFVVKAKSKKIPLGGIPSPSTEQSAKKVRKKAENAHNTPLLVLYGSNMGTAEGTARDLADIAMSKGFAPQVATLDSHAGNLPREGAVLIVTASYNGHPPDNAKQFVDWLDQASADEVKGVRYSVFGCGDKNWATTYQKVPAFIDETLAAKGAENIADRGEADASDDFEGTYEEWREHMWSDVAAYFNLDIENSEDNKSTLSLQFVDSAADMPLAKMHGAFSTNVVASKELQQPGSARSTRHLEIELPKEASYQEGDHLGVIPRNYEGIVNRVTARFGLDASQQIRLEAEEEKLAHLPLAKTVSVEELLQYVELQDPVTRTQLRAMAAKTVCPPHKVELEALLEKQAYKEQVLAKRLTMLELLEKYPACEMKFSEFIALLPSIRPRYYSISSSPRVDEKQASITVSVVSGEAWSGYGEYKGIASNYLAELQEGDTITCFISTPQSEFTLPKDPETPLIMVGPGTGVAPFRGFVQARKQLKEQGQSLGEAHLYFGCRSPHEDYLYQEELENAQSEGIITLHTAFSRMPNQPKTYVQHVMEQDGKKLIELLDQGAHFYICGDGSQMAPAVEATLMKSYADVHQVSEADARLWLQQLEEKGRYAKDVWAG | 316 ± 20 Mole product per mole P450 per minute | 29 ± 5 | 7 | 7 | 10 | 83 | –
2 | X-E12: II-E2-derived P450 variant (SEQ ID NO. 14), 6a-hydroxylating (protein) MTIKEMPQPKTFGELKNLPLLNTDKPVQALMKIADELGEIFKFEAPGRVTRYLSSQRLIKEACDESRFDKNLSQVLKFNRDFAGDGLATSWTHEKNWKKAHNILLPSFSQQAMKGYHAMMVDIAVQLVQKWERLNADEHIEVSEDMTRLTLDTIGLCGFNYRFNSFYRDQPHPFIISMVRTADETMNKLQRANPDDPVYDENKRQCQEDIKVMNDLVDKIIADRKARGEQSDDLLTQMLNGKDPETGEPLDDGNISYQIITFLIAGHETTSGLLSFALYFLVKNPHVLQKVAEEAARVLVDPVPSYKQVKQLKYVGMVLNEALRLWPTAPAFSLYAKEDTVLGGEYPLEKGDEVMVLIPQLHRDKTIWGDDVEEFRPERFENPSAIPQHAFKPFGNGQRACIGQQFALHEATLVLGMMLKHFDFEDHTNYELDIKETLTLKPEGFVVKAKSKKIPLGGIPSPSTEQSAKKVRKKAENAHNTPLLVLYGSNMGTAEGTARDLADIAMSKGFAPQVATLDSHAGNLPREGAVLIVTASYNGHPPDNAKQFVDWLDQASADEVKGVRYSVFGCGDKNWATTYQKVPAFIDETLAAKGAENIADRGEADASDDFEGTYEEWREHMWSDVAAYFNLDIENSEDNKSTLSLQFVDSAADMPLAKMHGAFSTNVVASKELQQPGSARSTRHLEIELPKEASYQEGDHLGVIPRNYEGIVNRVTARFGLDASQQIRLEAEEEKLAHLPLAKTVSVEELLQYVELQDPVTRTQLRAMAAKTVCPPHKVELEALLEKQAYKEQVLAKRLTMLELLEKYPACEMKFSEFIALLPSIRPRYYSISSSPRVDEKQASITVSVVSGEAWSGYGEYKGIASNYLAELQEGDTITCFISTPQSEFTLPKDPETPLIMVGPGTGVAPFRGFVQARKQLKEQGQSLGEAHLYFGCRSPHEDYLYQEELENAQSEGIITLHTAFSRMPNQPKTYVQHVMEQDGKKLIELLDQGAHFYICGDGSQMAPAVEATLMKSYADVHQVSEADARLWLQQLEEKGRYAKDVWAG | 72 ± 3 Mole product per mole P450 per minute | 300 ± 24 | 94 | 94 | 2 | 4 | 113 and 113 ± 12
